From patent US7618787B2, “Method of screening compound capable of accelerating or inhibiting apoptosis, apoptosis accelarator and apoptosis inhibitor” (Hisamitsu Pharmaceutical Co., Inc., priority 2004, dated 2009)

Key:
[1] = target: T1, GST-p73 fusion proteins (Homo sapiens, UniProt O15350); experiment: In vitro GST pull-down assay; format: binding; conditions: in vitro pull-down (FIG. 13)
T1 construct: made in house
T1 sequence (O15350 114-328): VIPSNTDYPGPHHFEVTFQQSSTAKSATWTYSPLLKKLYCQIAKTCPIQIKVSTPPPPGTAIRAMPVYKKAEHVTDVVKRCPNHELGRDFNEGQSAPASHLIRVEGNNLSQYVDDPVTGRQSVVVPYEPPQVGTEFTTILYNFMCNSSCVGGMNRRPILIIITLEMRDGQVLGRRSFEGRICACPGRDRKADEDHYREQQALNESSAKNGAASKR
Description: Whole cell lysates prepared from COS7 cells expressing FLAG-IKK-α were mixed with glutathione S-transferase (GST) or GST fusion protein and incubated with slow shaking at 4° C. for 2 hours in the presence of glutathione-Sepharose beads (Amersham Pharmacia Biotech). Then, the Sepharose beads were precipitated by brief centrifugation and vigorously washed with NETN buffer (pH 7.5; 50 mM Tris-Cl, 150 mM sodium chloride, 0.1% NP-40, and 1 mM EDTA) containing 1 mM PMSF. The proteins bound with the beads were eluted therefrom by the addition of 30 μL of 2×Laemmli SDS sample buffer, then boiled for 5 minutes, and separated with 10% SDS-PAGE. The proteins were transferred to PVDF membranes and immunoblotted with […] as described above.
To investigate whether IKK-α interacted with p73 in cultured mammal cells, whole cell lysates were prepared from transfected COS7 cells, then immunoprecipitated with an anti-FLAG or anti-HA antibody, and analyzed by immunoblot using an anti-p73 or anti-FLAG antibody, respectively. […] Likewise, HA-p73β was co-immunoprecipitated with FLAG-IKK-α (data not shown). […] To identify determinants of p73 participating in the interaction with IKK-α, several deletion mutants of p73 fused to GST were prepared and examined for their abilities to bind to FLAG-IKK-α by in-vitro pull-down assay. […]

[2] = target: T2, p73 (Homo sapiens, UniProt O15350); experiment: Co-immunoprecipitation with p73 in transfected COS7 cells; format: binding; conditions: COS7, data not shown
T2 construct: expressed in transfected cells; host or cells: COS7
T2 sequence (O15350 1-499 isoform O15350-2): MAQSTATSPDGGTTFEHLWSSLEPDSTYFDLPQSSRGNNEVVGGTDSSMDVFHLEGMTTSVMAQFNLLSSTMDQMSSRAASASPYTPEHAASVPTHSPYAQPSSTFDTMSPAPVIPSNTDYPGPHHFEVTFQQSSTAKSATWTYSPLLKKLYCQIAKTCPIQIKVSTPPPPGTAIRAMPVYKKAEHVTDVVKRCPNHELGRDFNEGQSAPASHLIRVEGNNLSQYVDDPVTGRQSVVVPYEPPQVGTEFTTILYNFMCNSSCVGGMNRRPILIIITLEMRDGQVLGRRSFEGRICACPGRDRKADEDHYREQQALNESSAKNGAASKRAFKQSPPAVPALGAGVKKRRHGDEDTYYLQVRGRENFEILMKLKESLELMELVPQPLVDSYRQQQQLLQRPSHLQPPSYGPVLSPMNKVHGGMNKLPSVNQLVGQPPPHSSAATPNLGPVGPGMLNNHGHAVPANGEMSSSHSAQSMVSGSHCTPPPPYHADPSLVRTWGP
Description: Whole cell lysates were centrifuged at 15000 rpm for 15 minutes to remove cell debris. The obtained supernatant was pretreated at 4° C. for 30 minutes with protein G-Sepharose (50% slurry, 30 μL; Amersham Pharmacia Biotech). After centrifugation, the supernatant was incubated at 4° C. for 2 hours with an anti-HA polyclonal (Medical and Biological Laboratories) or anti-FLAG monoclonal antibody. The immunocomplexes were precipitated at 4° C. for 30 minutes with protein G-Sepharose beads. After collection by brief centrifugation, the immunoprecipitates were washed three times with lysis buffer, then suspended in 30 μL of 2×Laemmli SDS sample buffer, and treated at 100° C. for 5 minutes. The supernatant was loaded onto 10% SDS-PAGE and analyzed by immunoblot as described above.
To investigate whether IKK-α interacted with p73 in cultured mammal cells, whole cell lysates were prepared from transfected COS7 cells, then immunoprecipitated with an anti-FLAG or anti-HA antibody, and analyzed by immunoblot using an anti-p73 or anti-FLAG antibody, respectively. […] Likewise, HA-p73β was co-immunoprecipitated with FLAG-IKK-α (data not shown). […] To identify determinants of p73 participating in the interaction with IKK-α, several deletion mutants of p73 fused to GST were prepared and examined for their abilities to bind to FLAG-IKK-α by in-vitro pull-down assay. These mutants were designed on the basis of the functional domains of p73 including transactivation, DNA-binding, oligomerization, and SAM domains (FIG. 12).

[3] = target: T3, HA-p73α (Homo sapiens, UniProt O15350); experiment: Ubiquitination assay in COS7 cells; format: cell-based; conditions: COS7, HA-p73α and HA-ubiquitin, MG-132 (FIG. 18, 19)
T3 construct: expressed in transfected cells; host or cells: COS7
T3 sequence (O15350 1-636): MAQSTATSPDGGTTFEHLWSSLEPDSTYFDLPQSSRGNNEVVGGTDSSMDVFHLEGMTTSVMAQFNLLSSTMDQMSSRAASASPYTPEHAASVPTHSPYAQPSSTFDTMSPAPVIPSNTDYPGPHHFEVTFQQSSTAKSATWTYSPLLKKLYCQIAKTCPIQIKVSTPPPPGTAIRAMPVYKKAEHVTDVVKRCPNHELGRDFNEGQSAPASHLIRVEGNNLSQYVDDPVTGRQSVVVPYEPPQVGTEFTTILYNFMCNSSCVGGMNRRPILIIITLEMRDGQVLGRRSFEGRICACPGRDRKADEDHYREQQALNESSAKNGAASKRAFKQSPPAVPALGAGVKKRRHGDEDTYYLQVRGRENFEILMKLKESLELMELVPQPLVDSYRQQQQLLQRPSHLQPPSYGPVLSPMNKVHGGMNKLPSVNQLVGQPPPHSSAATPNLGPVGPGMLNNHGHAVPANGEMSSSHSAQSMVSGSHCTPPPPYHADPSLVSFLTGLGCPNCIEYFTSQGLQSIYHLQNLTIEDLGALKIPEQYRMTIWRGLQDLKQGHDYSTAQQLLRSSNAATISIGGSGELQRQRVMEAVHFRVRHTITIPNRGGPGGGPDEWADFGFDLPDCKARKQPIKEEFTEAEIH
Description: COS7 cells were transiently transfected with a constant amount of expression plasmids encoding HA-p73α and HA-Ub in the presence or absence of varying amounts of IKK-α expression plasmids. After […] from the transfection, the cells were exposed for 6 hours to a proteasome inhibitor MG-132 (final concentration: 20 μM), and lysates from the whole cells were first subjected to immunoprecipitation with an anti-p73 monoclonal antibody and then to immunoblot using an anti-HA monoclonal antibody (12CA5; Roche Molecular Biochemicals) to analyze ubiquitination levels.
As described by Lee, C.-W. et al., Oncogene 18: 4171-4181 (1999), the steady-state level of p73 was regulated at least partially by the proteolytic process through the ubiquitin-proteasome pathway. Whether IKK-α inhibited the ubiquitination of p73 was investigated. COS7 cells were transfected with expression plasmids for HA-p73α and HA-ubiquitin together with or without varying amounts of IKK-α or FLAG-IKK-β expression plasmids. After 48 hours of the transfection, lysates from the whole cells were analyzed by immunoprecipitation and immunoblot and examined for the presence of p73α containing HA-ubiquitin.

- co-immunoprecipitation with HA-p73β [2]: co-immunoprecipitated
- amount of ubiquitinated p73α [3]: decreased
B1: IKK-α: IKK-α protein, amino acid sequence SEQ ID NO: 24, expressed from plasmid; apoptosis enhancer (protein, listed as Homo sapiens)
chain: MERPPGLRPGAGGPWEMRERLGTGGFGNVCLYQHRELDLKIAIKSCRLELSTKNRERWCHEIQIMKKLNHANVVKACDVPEELNILIHDVPLLAMEYCSGGDLRKLLNKPENCCGLKESQILSLLSDIGSGIRYLHENKIIHRDLKPENIVLQDVGGKIIHKIIDLGYAKDVDQGSLCTSFVGTLQYLAPELFENKPYTATVDYWSFGTMVFECIAGYRPFLHHLQPFTWHEKIKKKDPKCIFACEEMSGEVRFSSHLPQPNSLCSLIVEPMENWLQLMLNWDPQQRGGPVDLTLKQPRCFVLMDHILNLKIVHILNMTSAKIISFLLPPDESLHSLQSRIERETGINTGSQELLSETGISLDPRKPASQCVLDGVRGCDSYMVYLFDKSKTVYEGPFASRSLSDCVNYIVQDSKIQLPIIQLRKVWAEAVHYVSGLKEDYSRLFQGQRAAMLSLLRYNANLTKMKNTLISASQQLKAKLEFFHKSIQLDLERYSEQMTYGISSEKMLKAWKEMEEKAIHYAEVGVIGYLEDQIMSLHAEIMELQKSPYGRRQGDLMESLEQRAIDLYKQLKHRPSDHSYSDSTEMVKIIVHTVQSQDRVLKELFGHLSKLLGCKQKIIDLLPKVEVALSNIKEADNTVMFMQGKRQKEIWHLLKIACTQSSARSLVGSSLEGAVTPQTSAWLPPTSAEHDHSLSCVVTPQDGETSAQMIEENLNCLGHLSTIIHEANEEQGNSMMNLDWSWLTE
- binding to GST-p73 deletion mutants [1]: bonded to GST-p73 (114-328) but not to other GST-fused proteins
